Reference: paper PMC7896505, “Expression, purification, crystallization and preliminary X-ray crystallographic studies of a mitochondrial membrane-associated protein Cbs2 from Saccharomyces cerevisiae” (PeerJ, 2021)

Target: the molecule itself
Test: SEC; Superdex 200 10/300 in buffer G (20 mM Tris-HCl pH 7.5, 100 mM NaCl, 2 mM DTT); molecular weight from a calibration curve (Gel Filtration Calibration Kits HMW and LMW); peak at approximately 90 KDa against about 44 KDa on SDS-PAGE

B1: Cbs2 from Saccharomyces cerevisiae (natural protein, S. cerevisiae, UniProt P14905 1-389, looked up)
chain: MSSSIPRVYSLGNSAMTYLLALRIAQLPSQPKVPSVVLLLNDQKKLNRFLNNDSKIIVKSSNNNKETYHRQFMASCVPPILSNGEIAPIENLIVSDPSSKFITAQLSKYNKSLRPETNILFLNPSLNLLEHLHRYRWRFDEARPNLFMGFTTPVDVGTIHQEFQLSLKVKGRIQFHIAKIDGFPRMSSTGKSASLSLRGDRQKNEKENNAFYKLFREISRLRSGIGSDLVSFDLHVHGFQDLFFTELEKLILESCTEPLLAVYDCVYKKELLKIPGAQDIIKKLISEQLSIIDRSYPSLNTNPNYSVIFDKERIFSLVMRDLEVNGHKRAKLAQSLNQLNQTNINELNGFFVSLGKYKKCNCKWNDILLTLIKGKQFITKQKALDYHYL
notes: 389 amino acids; The selenomethionine derivative (Se-Cbs2) was used only for crystallization; also called recombinant Cbs2; Cbs2-His tag; source: E. coli C43 (DE3), purified (Ni-NTA, Hitrap Q anion exchange, Superdex 200 gel filtration)
Question: Which “stoichiometry N” value does the source give for B1 here?
Answer: Its value is 2.
